From US12440573B2, “Antibody-conjugates for targeting of tumours expressing PTK7” (Synaffix B.V., priority 2022, dated 2025)
Marks after values point to notes of the source that are not given here.

Assays:
[1] = test system: PTK7 expressing NCl—H446 tumor model; experiment: In vivo efficacy study, NCl—H446 xenograft, with Olaparib (Example 33); parameters: species or system BALB/c nude mice; settings: ADC 2.5 mg/kg single IV dose; Olaparib 50 mg/kg orally QD×21 days
Protocol: (§1) NCl—H446, lung cancer xenograft model cell line was maintained in vitro using RPMI-1640 medium supplemented with 10% FBS in humidified cell culture incubator at 37° C. with standard 5% CO2 specs. The cells in an exponential growth phase were harvested and counted for tumor inoculation.
BALB/c nude mice (female) of 7-9 weeks old received a subcutaneous injection in the right front flank region with 5×10^6 tumor cells in 0.1 ml of PBS mixed with Matrigel (1:1) for tumor development. When tumors reached an average size of 100-200 mm^3, randomization was performed into 5 groups of 8 mice and treatment began. Randomization will be performed based on “Matched distribution” method (Study Director™ Software, version 3.1.399.19). The date of randomization will be denoted as day 0.
(§2) Electronic caliper measurement were performed 2 times a week. Daily observations for clinical signs, food and water consumption, behavioral changes, animals were weighed 2 times per week. […]
(§3) Observation and data collection: After tumor cells inoculation, the animals are checked daily for morbidity and mortality. […] Tumor volumes are measured every 3-4 days in two dimensions using an caliper, and the volume data are expressed in mm3 using the formula: V=(L×W×W)/2, where V is tumor volume, L is tumor length (the longest tumor dimension) and W is tumor width (the longest tumor dimension perpendicular to L). […]

[2] = test system: A431 (PTK7+, ATCC CRL-1555) cells; experiment: In vitro cytotoxicity, resazurin viability; assay type: cell-based; settings: 5 days incubation
Protocol: A431 (PTK7+, ATCC CRL-1555) cells were plated in 96-well plates (10000 cells in 150 μL/well) in DMEM (ATCC) supplemented with 10% fetal bovine serum (FBS) (Invitrogen) and incubated overnight in a humidified atmosphere at 37° C. and 5% CO2. ADCs were added in triplo in a square root of 10 dilution series to obtain a final concentration ranging from 100 nM-0.01 nM. The cells were incubated for 5 days in a humidified atmosphere at 37° C. and 5% CO2. The culture medium was replaced by 0.01 mg/mL resazurin (Sigma Aldrich) in DMEM supplemented with 10% FBS (200 μL/well). After approximately 4 hours in a humidified atmosphere at 37° C. and 5% CO2 the fluorescence was detected with a fluorescence plate reader (Infinite® M1000 Tecan) at 560 nm excitation and 590 nm emission. The relative fluorescent units (RFU) were normalized to cell viability percentage by setting wells without cells at 0% viability and wells with untreated cells at 100% viability (see FIG. 9). IC50 values for ADCs on A431 cells were calculated by non-linear regression using Graphpad prism software and are shown in the table below: […]

[3] = test system: PTK7 expressing NCl—H446 tumor model; experiment: In vivo efficacy study, NCl—H446 xenograft (Example 30); parameters: species or system BALB/c nude mice; settings: single IV dose; cofetuzumab-3 2.59, 5.18, 10.36 mg/kg; cofetuzumab-5b 2.59, 5.18 mg/kg; cofetuzumab-Aur0101 2.33 mg/kg; up to t=44 days
Protocol: as §1
BALB/c nude mice (female) of 7-9 weeks old received a subcutaneous injection in the right front flank region with 5×10^6 tumor cells in 0.1 ml of PBS mixed with Matrigel (1:1) for tumor development. When tumors reached an average size of 100-200 mm^3, randomization was performed into 10 groups of 8 mice and treatment began. Randomization will be performed based on “Matched distribution” method (Study Director™ Software, version 3.1.399.19). The date of randomization will be denoted as day 0.
as §2
as §3, with “collection.” for “collection: After tumor cells inoculation, the animals are checked daily for morbidity and mortality.”

[4] = Stability of ADCs in human plasma (DAR by RP-UPLC); assay type: in vitro ADME
Protocol: (§4) General procedure for analytical RP-UPLC (DTT treated samples): Prior to RP-UPLC analysis, IgG (10 μL, 1 mg/mL in PBS pH 7.4) was added to 12.5 mM DTT, 100 mM TrisHCl pH 8.0 (40 μL) and incubated for 15 minutes at 37° C. The reaction was quenched by adding 49% acetonitrile, 49% water, 2% formic acid (50 μL). RP-UPLC analysis was performed on a Waters Acquity UPLC-SQD. The sample (5 μL) was injected with 0.4 mL/min onto Bioresolve RP mAb 2.1*150 mm 2.7 μm (Waters) with a column temperature of 70° C. A linear gradient was applied in 9 minutes from 30 to 54% acetonitrile in 0.1% TFA and water. Absorbance of eluted peaks was measured at 215 nm followed by automated integration (MassLynx, Waters) to determine reaction conversion.
(§5) Stability of ADCs in mice and human plasma was tested. Prior to the assay, the plasma was depleted from all IgG using CaptivA® Protein A agarose (1 mL agarose/mL serum). ADCs were added to the depleted human/mouse serum to a final concentration of 0.1 mg/mL followed by incubation at 37° C. At each time point, 0.5 mL was snap frozen and stored at −80° C. until further analysis. To isolate the ADCs after incubation, 20 μl CaptivA® Protein A agarose resin was added to the samples and incubated for 1 hour at room temperature. The resin was washed three times with PBS and subsequently 0.1 M Glycine-HCl pH 2.7 (0.4 mL) was added to elute the ADCs. After elution, the samples were immediately neutralized with 1.0 M Tris pH 8.0 (0.1 mL). The samples were spin-filtered against PBS for three times using Amicon Ultra spin-filter 0.5 mL MWCO 10 kDa (Merck Millipore) and the volume was reduced to 40 μL, yielding a final ADC concentration of approximately 1 mg/mL. Samples were analyzed on RP-UPLC (DTT reduced) to determine the DAR, tables below.

[5] = Stability of ADCs in mice plasma (DAR by RP-UPLC); assay type: in vitro ADME
Protocol: as §4, §5

[6] = human plasma, 0.1 mg/mL, 37° C.

## O=C(c1cc(Cc2n[nH]c(=O)c3ccccc23)ccc1F)N1CCN(C(=O)C2CC2)CC1 [Olaparib]
[1]
  in vivo efficacy (tumor volume over time), single treatment: no significant effect

## B12-3: B12(6-N3-GalNAc)2 conjugated with BCN—HS-PEG2-HS-(va-PAB-Ex)2 3; negative / isotype control ADC [reference compound]
[2]
  IC50: > 100 nM

## cofetuzumab-5b: cofetuzumab(6-N3-GalNAc)2 conjugated with BCN—HS-vc-PABC-calicheamicin 5b; average DAR 1.93
[2]
  IC50: 0.1 nM
[3]
  in vivo efficacy (tumor volume over time): tumor growth delay

## cofetuzumab-Aur0101: TCEP-reduced cofetuzumab conjugated with Auristatin0101; average DAR 4.3; conventional comparator ADC [reference compound]
[4]; human plasma table, direct measurement (not through isolation from plasma with protA agarose resin)
  DAR t = 0: 4.21*
[4]; [6]
  DAR t = 3: 3.61
  DAR t = 14: 2.67
  DAR t = 14, % of t = 0: 63%
[5]; mice plasma table, direct measurement (not through isolation from plasma with protA agarose resin)
  DAR t = 0: 4.21*
[5]; mice plasma, 0.1 mg/mL, 37° C.
  DAR t = 1: 3.64
  DAR t = 3: 3.26
  DAR t = 7: 2.46
  DAR t = 7, % of t = 0: 58%
[3]
  in vivo efficacy (tumor volume over time): only marginal tumor growth delay
